Results taken from the supplement of paper PMC10567573.

B1: AUP1 (parent)
chain: EGLLRFSSWPFSIQDVVQPLTLQV

Variants of: B1
Test: protein stability index of a GFP-peptide fusion (GPS, HEK-293T) (PSI 1-6); higher = more stable
Details: c terminus: a fixed tail appended
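Note: lentivirally expressed fusions sorted by FACS into six bins by GFP to DsRed ratio, PSI derived from sequencing read proportions per bin multiplied by bin number.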

Variant | protein stability index
EGLLRFSSWPFSIQDVVQWLTLQV | 1.56
EGLLRFSSWPFSIQDVVQPLTEQV | 2.15
EGLLRFSSWPFSIQDVVQPLTVQV | 2.62
EGLLRFSSWPFSIQDVVQPLTPQV | 1.52
EGLLRFSSWPFSIQDVVQPLTYQV | 2.16
EGLLRFSSWPFSIQDVVQPLTNQV | 1.27
EGLLRFSSWPFSIQDVVQPLTCQV | 1.85
EGLLRFSSWPFSIQDVVQPLTGQV | 1.6
EGLLRFSSWPFSIQDVVQPLTTQV | 2.47
EGLLRFSSWPFSIQDVVQPLTDQV | 2.61
EGLLRFSSWPFSIQDVVQPLTSQV | 1.85
EGLLRFSSWPFSIQDVVQPLTHQV | 1.75
EGLLRFSSWPFSIQDVVQPLTQQV | 2.11
EGLLRFSSWPFSIQDVVQPLTKQV | 1.76
EGLLRFSSWPFSIQDVVQPLTAQV | 1.68
EGLLRFSSWPFSIQDVVQPLTFQV | 3.96
EGLLRFSSWPFSIQDVVQPLTIQV | 2.13
EGLLRFSSWPFSIQDVVQPLTLQQ | 1.53
EGLLRFSSWPFSIQDVVQPLTLQG | 2.14
EGLLRFSSWPFSIQDVVQPLTLQL | 2.77
EGLLRFSSWPFSIQDVVQPLTLQC | 2.23
EGLLRFSSWPFSIQDVVQPLTLQT | 1.45
EGLLRFSSWPFSIQDVVQPLTLQE | 2.06
EGLLRFSSWPFSIQDVVQPLTLQA | 2.15

Variant | protein stability index
EGLLRFSSWPFSIQDVVQPLTLQR | 2.75
EGLLRFSSWPFSIQDVVQPLTLQS | 1.79
EGLLRFSSWPFSIQDVVQPLTLQF | 3.48
EGLLRFSSWPFSIQDVVQPLTLQM | 5.7
EGLLRFSSWPFSIQDVVQPLTLQK | 2.17
EGLLRFSSWPFSIQDVVQPLTLQD | 1.97
EGLLRFSSWPFSIQDVVQPLTLQI | 2.38
EGLLRFSSWPFSIQDVVQPLTLQW | 2.53
EGLLRFSSWPFSIQDVVQPLTLQN | 1.59
EGLLRFSSWPFSIQDVVQPLTLQY | 3.1
EGLLRFSSWPFSIQDVVQPLTLQP | 1.57
EGLLRFSSWPFSIQDVVQPLTLCV | 1.61
EGLLRFSSWPFSIQDVVQPLTLHV | 1.98
EGLLRFSSWPFSIQDVVQPLTLMV | 3.98
EGLLRFSSWPFSIQDVVQPLTLGV | 1.4
EGLLRFSSWPFSIQDVVQPLTLDV | 1.81
EGLLRFSSWPFSIQDVVQPLTLAV | 3.02
EGLLRFSSWPFSIQDVVQPLTLEV | 2.65
EGLLRFSSWPFSIQDVVQPLTLSV | 1.4
EGLLRFSSWPFSIQDVVQPLTLPV | 1.45
EGLLRFSSWPFSIQDVVQPLTLKV | 1.59
EGLLRFSSWPFSIQDVVQPLTLYV | 2.82
EGLLRFSSWPFSIQDVVQPLTLLV | 3.58
